According to article PMC3579940:

Legend:
biotin-EPR-CTF = assay: SPR; BIAcore S51; biotin-EGFR-ligand-CTFs immobilised (~1000 RU) on streptavidin chips; GST-ZnF5-8 0.03-1.0 µM injected at 30 µL/min for 2 min, 25°C; 10 mM HEPES pH 7.4, 150 mM NaCl, 0.005% Surfactant P20; KD = kd/ka
biotin-AR-CTF = assay: as above

Kd (biotin-EPR-CTF): 146 nM
koff (biotin-EPR-CTF): 0.000806 s⁻¹
kon (biotin-EPR-CTF): 5610 M⁻¹ s⁻¹
Kd (biotin-AR-CTF): 76.5 nM
koff (biotin-AR-CTF): 0.00144 s⁻¹
kon (biotin-AR-CTF): 18700 M⁻¹ s⁻¹
Substance: recombinant GST-tagged ZnF5-8 of PLZF (domain or fragment)
